From PMC5670216, “In vitro selections of mammaglobin A and mammaglobin B aptamers for the recognition of circulating breast tumor cells” come the findings set out here.

Series [1] deals with Mammaglobin A (MGB1), recombinant (UniProt Q13296 19-93). The series is described as follows: EMSA; aptamer 600 nM, protein 0-220 nM; unit implied by nM axis; EMSA: 50 mM Tris-HCl, 10 mM reduced glutathione, pH 8.0, 1 h at 37 C, 8% native PAGE; transfected-cell flow cytometry: PBS, 5 mM MgCl2, 4 C, 30 min, formaldehyde-fixed cells. The conditions noted are these: tags: GST (stated for the SELEX protein).
Chain of Mammaglobin A (MGB1), recombinant (Q13296 19-93): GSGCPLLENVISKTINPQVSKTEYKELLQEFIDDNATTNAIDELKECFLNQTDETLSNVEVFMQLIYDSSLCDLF

For series [2], the target named is T1, Mammaglobin B (MGB2), recombinant (UniProt O75556 19-95).
T1 sequence: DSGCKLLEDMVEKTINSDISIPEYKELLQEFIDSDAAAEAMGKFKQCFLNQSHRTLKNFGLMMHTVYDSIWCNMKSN
The description is as above. The settings on record: tags: GST (stated for the SELEX protein).

B1: MAMA2 (ssDNA)
DNA: CATGCTTACCTATAGTGAACCCGGGACAGAACGTGCGCTTTGAGCTTTGAGAACTGACTCATAC
For B1, in series [1], the Kd stood at 0.088 ± 0.006 µM.

B2: MAMB1 (ssDNA)
DNA: CATGCTTACCTATAGTGAACCCAACGTCGAACTGAATCCCGTGTCCTTTGAGAACTGACTCATAC
For B2, the Kd in series [2] turned out to be 0.095 ± 0.007 µM.
